Assay results as given in publication PMC5625035.

Target: PNKP (UniProt Q96T60)
Test: Ni-NTA co-purification of XRCC1-His complexes, immunoblot
Conditions: reference: wild-type XRCC1-His; sites S518,T519,T523

binding against the reference: weaker
Substance: XRCC1 (from UniProt P18887) XRCC1-His S518A/T519A/T523A
